Experimental data as given in PMC8604728.

B1: unnamed (parent)
chain 1: DYMGWMDF
chain 2: MDVVDSLLVNGSNITPPCELGLENETLFCLDQPRPSKEWQPAVQILLYSLIFLLSVLGNTLVITVLIRNKRMRTVTNIFLLSLAVSDLMLCLFCMPFNLIPNLLKDFIFGSAVCKTTTYFMGTSVSVSTFNLVAISLERYGAICKPLQSRVWQTKSHALKVIAATWCLSFTIMTPYPIYSNLVPFTKNNNQTANMCRFLLPNDVMQQSWHTFLLLILFLIPGIVMMVAYGLISLELYQGIKFEASQKKSAKERKPSTTSSGKYEDSDGCYLQKTRPPRKLELRQLSTGSSSRANRIRSNSSAANLMAKKRVIRMLIVIVVLFFLCWMPIFSANAWRAYDTASAERRLSGTPISFILLLSYTSSCVNPIIYCFMNKRFRLGFMATFPCCPNPGPPGARGEVGEEEEGGTTGASLSRFSYSHMSASVPPQ

Variants of: B1
Assay: radiolabeled ligand-binding assay (competition with unlabeled CCK-8)
Details: upper plateau of the fitted competition curve at the lowest CCK-8 concentration (log [CCK-8] = -12), read off a plot

| Variant | percent of parent |
| --- | --- |
| chain 2 MDVVDSLLVNGSNITPPCELGLENETLFCLDQPRPSKEWQPAVQILLYSLIFLLSVLGNTLVITVLIRNKRMRTVTNIFLLSLAVSDLMLCLFCMPFNLIPNLLKDFIFGSAVCKTTTYFMGTSVSVSTFNLVAISLERYGAICKPLQSRVWQTKSHALKVIAATWCLSFTIMTPYPIYSNLVPFTKNNNQTANACRFLLPNDVMQQSWHTFLLLILFLIPGIVMMVAYGLISLELYQGIKFEASQKKSAKERKPSTTSSGKYEDSDGCYLQKTRPPRKLELRQLSTGSSSRANRIRSNSSAANLMAKKRVIRMLIVIVVLFFLCWMPIFSANAWRAYDTASAERRLSGTPISFILLLSYTSSCVNPIIYCFMNKRFRLGFMATFPCCPNPGPPGARGEVGEEEEGGTTGASLSRFSYSHMSASVPPQ [chain 2 M195A] | 30 % WT |
| chain 2 MDVVDSLLVNGSNITPPCELGLENETLFCLDQPRPSKEWQPAVQILLYSLIFLLSVLGNTLVITVLIRNKRMRTVTNIFLLSLAVSDLMLCLFCMPFNLIPNLLKDFIFGSAVCKTTAYFMGTSVSVSTFNLVAISLERYGAICKPLQSRVWQTKSHALKVIAATWCLSFTIMTPYPIYSNLVPFTKNNNQTANMCRFLLPNDVMQQSWHTFLLLILFLIPGIVMMVAYGLISLELYQGIKFEASQKKSAKERKPSTTSSGKYEDSDGCYLQKTRPPRKLELRQLSTGSSSRANRIRSNSSAANLMAKKRVIRMLIVIVVLFFLCWMPIFSANAWRAYDTASAERRLSGTPISFILLLSYTSSCVNPIIYCFMNKRFRLGFMATFPCCPNPGPPGARGEVGEEEEGGTTGASLSRFSYSHMSASVPPQ [chain 2 T118A] | 110 % WT |
| chain 2 MDVVDSLLVNGSNITPPCELGLENETLFCLDQPRPSKEWQPAVQILLYSLIFLLSVLGNTLVITVLIRNKRMRTVTNIFLLSLAVSDLMLCLFCMPFNLIPNLLADFIFGSAVCKTTTYFMGTSVSVSTFNLVAISLERYGAICKPLQSRVWQTKSHALKVIAATWCLSFTIMTPYPIYSNLVPFTKNNNQTANMCRFLLPNDVMQQSWHTFLLLILFLIPGIVMMVAYGLISLELYQGIKFEASQKKSAKERKPSTTSSGKYEDSDGCYLQKTRPPRKLELRQLSTGSSSRANRIRSNSSAANLMAKKRVIRMLIVIVVLFFLCWMPIFSANAWRAYDTASAERRLSGTPISFILLLSYTSSCVNPIIYCFMNKRFRLGFMATFPCCPNPGPPGARGEVGEEEEGGTTGASLSRFSYSHMSASVPPQ [chain 2 K105A] | 50 % WT |
| chain 2 MDVVDSLLVNGSNITPPCELGLENETLFCLDQPRPSKEWQPAVQILLYSLIFLLSVLGNTLVITVLIRNKRMRTVTNIFLLSLAVSDLMLCLFCMPFNLIPNLLKDFIFGSAVCKTTTYFMGTSVSVSTFNLVAISLERYGAICKPLQSRVWQTKSHALKVIAATWCLSFTIMTPYPIYSNLVPATKNNNQTANMCRFLLPNDVMQQSWHTFLLLILFLIPGIVMMVAYGLISLELYQGIKFEASQKKSAKERKPSTTSSGKYEDSDGCYLQKTRPPRKLELRQLSTGSSSRANRIRSNSSAANLMAKKRVIRMLIVIVVLFFLCWMPIFSANAWRAYDTASAERRLSGTPISFILLLSYTSSCVNPIIYCFMNKRFRLGFMATFPCCPNPGPPGARGEVGEEEEGGTTGASLSRFSYSHMSASVPPQ [chain 2 F185A] | 15 % WT |
| chain 2 MDVVDSLLVNGSNITPPCELGLENETLFCLDQPRPSKEWQPAVQILLYSLIFLLSVLGNTLVITVLIRNKRMRTVTNIFLLSLAVSDLMLCLFCMPFNLIPNLLKDFIFGSAVCKTTTYFMGTSASVSTFNLVAISLERYGAICKPLQSRVWQTKSHALKVIAATWCLSFTIMTPYPIYSNLVPFTKNNNQTANMCRFLLPNDVMQQSWHTFLLLILFLIPGIVMMVAYGLISLELYQGIKFEASQKKSAKERKPSTTSSGKYEDSDGCYLQKTRPPRKLELRQLSTGSSSRANRIRSNSSAANLMAKKRVIRMLIVIVVLFFLCWMPIFSANAWRAYDTASAERRLSGTPISFILLLSYTSSCVNPIIYCFMNKRFRLGFMATFPCCPNPGPPGARGEVGEEEEGGTTGASLSRFSYSHMSASVPPQ [chain 2 V125A] | 75 % WT |
| chain 2 MDVVDSLLVNGSNITPPCELGLENETLFCLDQPRPSKEWQPAVQILLYSLIFLLSVLGNTLVITVLIRNKRMRTVTNIFLLSLAVSDLMLCLFCMPFNLIPNLLKDFIFGSAVCKTTTYFMGTSVSVSTFNLVAISLERYGAICKPLQSRVWQTKSHALKVIAATWCLSFTIMTPYPIYSNLVPFTKNNNQTANMCRFLLPNDVMQQSWHTFLLLILFLIPGIVMMVAYGLISLELYQGIKFEASQKKSAKERKPSTTSSGKYEDSDGCYLQKTRPPRKLELRQLSTGSSSRANRIRSNSSAANLMAKKRVIRMLIVIVVLFFLCWMPIFSANAWRAYDTASAERRLSGTPISFILLLSATSSCVNPIIYCFMNKRFRLGFMATFPCCPNPGPPGARGEVGEEEEGGTTGASLSRFSYSHMSASVPPQ [chain 2 Y360A] | 28 % WT |
| chain 2 MDVVDSLLVNGSNITPPCELGLENETLFCLDQPRPSKEWQPAVQILLYSLIFLLSVLGNTLVITVLIRNKRMRTVTNIFLLSLAVSDLMLCLFCMPFNLIPNLLKDFIFGSAVCKTTTYFAGTSVSVSTFNLVAISLERYGAICKPLQSRVWQTKSHALKVIAATWCLSFTIMTPYPIYSNLVPFTKNNNQTANMCRFLLPNDVMQQSWHTFLLLILFLIPGIVMMVAYGLISLELYQGIKFEASQKKSAKERKPSTTSSGKYEDSDGCYLQKTRPPRKLELRQLSTGSSSRANRIRSNSSAANLMAKKRVIRMLIVIVVLFFLCWMPIFSANAWRAYDTASAERRLSGTPISFILLLSYTSSCVNPIIYCFMNKRFRLGFMATFPCCPNPGPPGARGEVGEEEEGGTTGASLSRFSYSHMSASVPPQ [chain 2 M121A] | 230 % WT |
| chain 2 MDVVDSLLVNGSNITPPCELGLENETLFCLDQPRPSKEWQPAVQILLYSLIFLLSVLGNTLVITVLIRNKRMRTVTNIFLLSLAVSDLMLCLFCMPFNLIPNLLKDFIFGSAVCKTTTYFMGTSVSVSTFNLVAISLERYGAICKPLQSRVWQTKSHALKVIAATWCLSFTIMTPYPIYSNLVPFTKNNNQTANMCRFLLPNDVMQQSWATFLLLILFLIPGIVMMVAYGLISLELYQGIKFEASQKKSAKERKPSTTSSGKYEDSDGCYLQKTRPPRKLELRQLSTGSSSRANRIRSNSSAANLMAKKRVIRMLIVIVVLFFLCWMPIFSANAWRAYDTASAERRLSGTPISFILLLSYTSSCVNPIIYCFMNKRFRLGFMATFPCCPNPGPPGARGEVGEEEEGGTTGASLSRFSYSHMSASVPPQ [chain 2 H210A] | 70 % WT |
